From paper PMC6218115 (2018)
Non-standard residues stand in square brackets, D forms with d. No end group written: not given here.

B1: tANK6 (peptide)
chain: [dR][dK][dR][dI][dR][dL][dV][dT][dK][dK][dK][dR][dR][dK][dR][dI][dR][dL][dV][dT][dK][dK][dK][dR]-NH2
modifications: also: 3H-labelled tracer
B2: ANK6 (peptide)
chain: [dR][dK][dR][dI][dR][dL][dV][dT][dK][dK][dK][dR]-NH2
modifications: also: 3H-labelled tracer
B3: cANK6r (peptide)
chain: cyclo([dR][dK][dR][dI][dR][dL][dV][dT][dK][dK][dK][dR][dR])
modifications: also: 3H-labelled tracer

Key:
[1] = molecular target: human serum albumin (HSA) (Homo sapiens, UniProt P02768); assay: TRANSIL XL HSA bead binding with liquid scintillation counting
[2] = molecular target: alpha-1-acid glycoprotein (AGP) (Homo sapiens, UniProt P02763); assay: TRANSIL XL AGP bead binding with liquid scintillation counting
Sequence of alpha-1-acid glycoprotein (AGP) (P02763 19-201): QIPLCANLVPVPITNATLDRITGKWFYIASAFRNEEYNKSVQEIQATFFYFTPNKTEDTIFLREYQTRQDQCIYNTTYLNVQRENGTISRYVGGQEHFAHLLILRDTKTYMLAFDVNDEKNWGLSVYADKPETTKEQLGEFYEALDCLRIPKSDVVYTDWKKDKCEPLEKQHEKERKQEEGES

Row | Binder | Kd [1] [µM] | Kd [2] [nM]
1 | B1 | 138 | 60
2 | B2 | – | 290
3 | B3 | 599 | 280
